Measurements published in patent US20050032689A1, “Methods for treatment or diagnosis of disease or disorders associated with an APB domain” (New York University, priority 1994, published 2005).
“Also recorded” adds a separate entry of the source.

Target: T1, TrkA (Rattus norvegicus, UniProt P35739)
T1 construct: lysates from 2×10^7 PC12 cells stimulated with 50 ng/ml nerve growth factor; endogenous in cells; host or cells: PC12
Assay: Binding of GST fusion proteins to TrkA from nerve growth factor stimulated PC12 cell lysates
Settings: 10 μg GST fusion protein, PC12 lysates stimulated with nerve growth factor
Method: FIGS. 4A, 4B, 4C and 4D. Binding of Shc fragments to growth factor receptors. A, schematic diagram illustrating the Shc fragments used in binding studies. Full length murine p52^shc is indicated in (i) while (ii)-(vi) were generated as GST fusion proteins for use in receptor binding studies. B, association of various GST fusion proteins with activated EGF receptor (EGFR). Binding was performed as in FIG. 2A with the exception that all lysates were stimulated with EGF. All studies used 3 μg of fusion proteins except for the Shc SH2 where 10 μg was used. Immunoblotting was performed with anti-phosphotyrosine. C, binding of Shc fusion proteins to NIH 3T3 cells expressing a HER1/2 chimera. This chimera consists of the EGF receptor extracellular binding domain and the intracellular region of HER2/neu. After stimulation of these cells with EGF (200 ng/ml) lysates were prepared and binding as well as blotting studies were performed as in B using anti-phosphotyrosine antibody. D, binding of Shc 1-209 to TrkA. Beads containing 10 μg of GST fusion proteins Shc 1-209, phospholipase C-γ (PLC-γ) SH2 (contains both N and C SH2 domains), or GST alone were added to lysates from 2×10^7 PC12 cells stimulated with 50 ng/ml nerve growth factor (lanes 1, 2, and 4). […] Protein concentration was determined by SDS-PAGE (polyacrylamide gel electrophoresis) using bovine serum albumin as a standard. […]

T1 sequence (P35739 33-799): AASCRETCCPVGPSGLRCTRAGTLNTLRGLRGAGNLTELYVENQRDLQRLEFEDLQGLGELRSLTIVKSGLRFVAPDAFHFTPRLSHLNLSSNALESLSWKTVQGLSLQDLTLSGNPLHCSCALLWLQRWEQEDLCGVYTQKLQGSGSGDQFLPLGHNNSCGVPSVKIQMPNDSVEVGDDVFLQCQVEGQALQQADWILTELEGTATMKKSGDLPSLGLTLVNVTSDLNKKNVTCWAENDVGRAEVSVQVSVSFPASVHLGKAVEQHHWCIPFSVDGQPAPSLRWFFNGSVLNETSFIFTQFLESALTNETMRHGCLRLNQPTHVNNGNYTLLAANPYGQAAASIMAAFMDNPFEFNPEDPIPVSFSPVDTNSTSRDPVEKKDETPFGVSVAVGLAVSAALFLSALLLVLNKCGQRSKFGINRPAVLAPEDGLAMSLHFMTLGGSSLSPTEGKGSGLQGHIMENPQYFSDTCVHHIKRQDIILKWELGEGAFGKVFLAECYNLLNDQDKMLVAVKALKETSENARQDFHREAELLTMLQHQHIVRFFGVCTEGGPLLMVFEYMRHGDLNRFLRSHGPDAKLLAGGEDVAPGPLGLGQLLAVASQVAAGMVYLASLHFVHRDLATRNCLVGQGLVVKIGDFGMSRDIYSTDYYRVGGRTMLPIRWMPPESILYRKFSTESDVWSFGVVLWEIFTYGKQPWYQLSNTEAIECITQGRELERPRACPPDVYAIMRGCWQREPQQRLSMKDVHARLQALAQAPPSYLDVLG

B1: Shc 1-209: Shc amino terminus, first 209 amino acids of murine p52Shc, generated as a GST fusion protein (protein, UniProt P98083 1-209, looked up, fragment)
chain: MDLLPPKPKYNPLRNESLSSLEEGASGSTPPEELPSPSASSLGPILPPLPGDDSPTTLCSFFPRMSNLKLANPAGGRLGPKGEPGKAAEDGEGSAGAALRDSGLLPLLQDMNKLSGGGGRRTRVEGGQLGGEEWTRHGSFVNKPTRGWLHPNDKVMGPGVSYLVRYMGCVEVLQSMRALDFNTRTQVTREAISLVCEAVPGAKGATRRR
modifications: GST fusion
notes: Shc amino terminus, first 209 amino acids of murine p52Shc, generated as a GST fusion protein
- binding to TrkA: bound to HER2/neu and TrkA; also recorded: bind in a similar fashion to that seen with the SH2 domain of phospholipase C-λ
